Data from patent US20150299268A1 (UNIVERSITY OF MARYLAND BALTIMORE, published 2015).

What was measured:
gp120-JR4-ScFV [1] = test: ELISA
gp120-JR4-ScFV [2] = test: ELISA; remark: listed apart in the source
FLSC R/T = target: T1, FLSC R/T (HIV-1, UniProt P01730 26-208); test: ELISA
T1 construct: not shown: linker of FLSC not described

gp120-JR48.1-ScFV = test: ELISA
gp120-b12-ScFV = test: ELISA
BaL-gp120 [3] = target: T2, BaL-gp120 (HIV-1 BaL); test: ELISA
T2 construct: domain: gp120; also called monomeric gp120; monomeric BaL gp120

BaL-gp120-K500A = target: T3, BaL-gp120-K500A (HIV-1 BaL); test: capture ELISA
T3 construct: domain: gp120

BaL-gp120-D62A = target: T4, BaL-gp120-D62A (HIV-1 BaL); test: capture ELISA
T4 construct: domain: gp120

BaL-gp120-E47AE91A = target: T5, BaL-gp120-E47AE91A (HIV-1 BaL); test: capture ELISA
T5 construct: domain: gp120

BaL-gp120-dV1 = BaL-gp120-dV1 (HIV-1 BaL); test: capture ELISA
BaL-gp120-E47A = target: T6, BaL-gp120-E47A (HIV-1 BaL); test: capture ELISA
T6 construct: domain: gp120

BaL-gp120-E31A = target: T7, BaL-gp120-E31A (HIV-1 BaL); test: capture ELISA
T7 construct: domain: gp120

BaL-gp120-T303A = target: T8, BaL-gp120-T303A (HIV-1 BaL); test: capture ELISA
T8 construct: domain: gp120; glycan mutant, V3 region

BaL-gp120-R476AR480A = target: T9, BaL-gp120-R476AR480A (HIV-1 BaL); test: capture ELISA
T9 construct: domain: gp120

BaL-gp120-S158A = target: T10, BaL-gp120-S158A (HIV-1 BaL); test: capture ELISA
T10 construct: domain: gp120

BaL-gp120-P493A = target: T11, BaL-gp120-P493A (HIV-1 BaL); test: capture ELISA
T11 construct: domain: gp120

BaL-gp120-T455A = target: T12, BaL-gp120-T455A (HIV-1 BaL); test: capture ELISA
T12 construct: domain: gp120

BaL-gp120-V75A = target: T13, BaL-gp120-V75A (HIV-1 BaL); test: capture ELISA
T13 construct: domain: gp120

BaL-gp120-E32A = target: T14, BaL-gp120-E32A (HIV-1 BaL); test: capture ELISA
T14 construct: domain: gp120

BaL-gp120-D57AD62A = target: T15, BaL-gp120-D57AD62A (HIV-1 BaL); test: capture ELISA
T15 construct: domain: gp120

BaL-gp120-F53A = target: T16, BaL-gp120-F53A (HIV-1 BaL); test: capture ELISA
T16 construct: domain: gp120

BaL-gp120-D78A = target: T17, BaL-gp120-D78A (HIV-1 BaL); test: capture ELISA
T17 construct: domain: gp120

BaL-gp120-T162A = target: T18, BaL-gp120-T162A (HIV-1 BaL); test: capture ELISA
T18 construct: domain: gp120; glycan mutant

BaL-gp120-mV3 = BaL-gp120-mV3 (HIV-1 BaL); test: capture ELISA
BaL-gp120-V496A = target: T19, BaL-gp120-V496A (HIV-1 BaL); test: capture ELISA
T19 construct: domain: gp120

BaL-gp120-W69A = target: T20, BaL-gp120-W69A (HIV-1 BaL); test: capture ELISA
T20 construct: domain: gp120

BaL-gp120-I491A = target: T21, BaL-gp120-I491A (HIV-1 BaL); test: capture ELISA
T21 construct: domain: gp120

BaL-gp120-D57AD78A = target: T22, BaL-gp120-D57AD78A (HIV-1 BaL); test: capture ELISA
T22 construct: domain: gp120

BaL-gp120-Y61A = target: T23, BaL-gp120-Y61A (HIV-1 BaL); test: capture ELISA
T23 construct: domain: gp120

BaL-gp120-E492A = target: T24, BaL-gp120-E492A (HIV-1 BaL); test: capture ELISA
T24 construct: domain: gp120

BaL-gp120-V68A = target: T25, BaL-gp120-V68A (HIV-1 BaL); test: capture ELISA
T25 construct: domain: gp120

core-V3-D7 = core-V3-D7 (HIV-1); test: capture ELISA
BaL-gp120-I420R = target: T26, BaL-gp120-I420R (HIV-1 BaL); test: capture ELISA
T26 construct: domain: gp120; also called -1420R

BaL-gp120-dV2 = BaL-gp120-dV2 (HIV-1 BaL); test: capture ELISA
BaL-gp120-K33A = target: T27, BaL-gp120-K33A (HIV-1 BaL); test: capture ELISA
T27 construct: domain: gp120

BaL-gp120-V44A = target: T28, BaL-gp120-V44A (HIV-1 BaL); test: capture ELISA
T28 construct: domain: gp120

BaL-gp120-Y40A = target: T29, BaL-gp120-Y40A (HIV-1 BaL); test: capture ELISA
T29 construct: domain: gp120

BaL-gp120-D57A = target: T30, BaL-gp120-D57A (HIV-1 BaL); test: capture ELISA
T30 construct: domain: gp120

BaL-gp120-Y39A = target: T31, BaL-gp120-Y39A (HIV-1 BaL); test: capture ELISA
T31 construct: domain: gp120

BaL-gp120-K46A = target: T32, BaL-gp120-K46A (HIV-1 BaL); test: capture ELISA
T32 construct: domain: gp120

BaL-gp120-R476A = target: T33, BaL-gp120-R476A (HIV-1 BaL); test: capture ELISA
T33 construct: domain: gp120

BaL-gp120-E106AD107A = target: T34, BaL-gp120-E106AD107A (HIV-1 BaL); test: capture ELISA
T34 construct: domain: gp120

BaL-gp120-L494A = target: T35, BaL-gp120-L494A (HIV-1 BaL); test: capture ELISA
T35 construct: domain: gp120

BaL-gp120-S200A = target: T36, BaL-gp120-S200A (HIV-1 BaL); test: capture ELISA
T36 construct: domain: gp120; also called 5200A

BaL-gp120-G495A = target: T37, BaL-gp120-G495A (HIV-1 BaL); test: capture ELISA
T37 construct: domain: gp120

BaL-gp120-P76A = target: T38, BaL-gp120-P76A (HIV-1 BaL); test: capture ELISA
T38 construct: domain: gp120

BaL-gp120-R58AK59A = target: T39, BaL-gp120-R58AK59A (HIV-1 BaL); test: capture ELISA
T39 construct: domain: gp120

BaL-gp120-W35A = target: T40, BaL-gp120-W35A (HIV-1 BaL); test: capture ELISA
T40 construct: domain: gp120

core-V1V2-D7 = core-V1V2-D7 (HIV-1); test: capture ELISA
BaL-gp120-P498A = target: T41, BaL-gp120-P498A (HIV-1 BaL); test: capture ELISA
T41 construct: domain: gp120

BaL-gp120-H105A = target: T42, BaL-gp120-H105A (HIV-1 BaL); test: capture ELISA
T42 construct: domain: gp120

BaL-gp120-dV3 = BaL-gp120-dV3 (HIV-1 BaL); test: capture ELISA
BaL-gp120-T499A = target: T43, BaL-gp120-T499A (HIV-1 BaL); test: capture ELISA
T43 construct: domain: gp120

BaL-gp120-W45A = target: T44, BaL-gp120-W45A (HIV-1 BaL); test: capture ELISA
T44 construct: domain: gp120

BaL-gp120-I423A = target: T45, BaL-gp120-I423A (HIV-1 BaL); test: capture ELISA
T45 construct: domain: gp120

core-D7 = core-D7 (HIV-1); test: capture ELISA
BaL-gp120-K487AK490A = target: T46, BaL-gp120-K487AK490A (HIV-1 BaL); test: capture ELISA
T46 construct: domain: gp120

BaL-gp120 [4] = target: T2, BaL-gp120; test: capture ELISA

B1: JR4 (antibody, V domains shown)
VH: EVQLVESGPGLVKPLETLSLTCAVPGGSIRRNYWSWIRQPPGKGLEWIGHSYGSGGSTNYNPSLESRVTLSVDTSKNLFSLKLTSVTAADTAVYYCARTVWYYTSGTHYFDHWGQGVLVTVSS
VL: QSVLTQPPSVSAAPGQKVTISCSGSSSNIGRSYVSWYQQVPGAAPKLLIYDTNKRPSGVSDRFSGSKSGSSASLAITGLQTGDEADYYCGAWDGSLNVHIFGSGTKLTVL
gp120-JR4-ScFV [1]
  binding result: no binding (tested: >100 fold of the Ab needed on gp120)
gp120-JR4-ScFV [2]
  Fold of Ab needed for ELISA binding OD equal to half max on gp120: > 100 fold
FLSC R/T
  Fold of Ab needed for ELISA binding OD equal to half max on gp120: 0.11 fold
gp120-JR48.1-ScFV
  Fold of Ab needed for ELISA binding OD equal to half max on gp120: 0.21 fold
gp120-b12-ScFV
  Fold of Ab needed for ELISA binding OD equal to half max on gp120: 0.09 fold
BaL-gp120 [3]
  Fold of Ab needed for ELISA binding OD equal to half max on gp120: 1 fold

B2: b12 (antibody, V domains shown)
VH: QVQLVQSGAEVKKPGASVKVSCQASGYRFSNFVIHWVRQAPGQRFEWMGWINPYNGNKEFSAKFQDRVTFTADTSANTAYMELRSLRSADTAVYYCARVGPYSWDDSPQDNYYMDVWGKGTTVIVSS
VL: EIVLTQSPGTLSLSPGERATFSCRSSHSIRSRRVAWYQHKPGQAPRLVIHGVSNRASGISDRFSGSGSGTDFTLTITRVEPEDFALYYCQVYGASSYTFGQGTKLERK
BaL-gp120-K500A
  % Binding: 93%
BaL-gp120-D62A
  % Binding: 98%
BaL-gp120-E47AE91A
  % Binding: 86%
BaL-gp120-dV1
  % Binding: 90%
BaL-gp120-E47A
  % Binding: 100%
BaL-gp120-E31A
  % Binding: 86%
BaL-gp120-T303A
  % Binding: 92%
BaL-gp120-R476AR480A
  % Binding: 68%
BaL-gp120-S158A
  % Binding: 80%
BaL-gp120-P493A
  % Binding: 95%
BaL-gp120-T455A
  % Binding: 90%
BaL-gp120-V75A
  % Binding: 93%
BaL-gp120-E32A
  % Binding: 104%
BaL-gp120-D57AD62A
  % Binding: 103%
BaL-gp120-F53A
  % Binding: 91%
BaL-gp120-D78A
  % Binding: 92%
BaL-gp120-T162A
  % Binding: 110%
BaL-gp120-mV3
  % Binding: 100%
BaL-gp120-V496A
  % Binding: 100%
BaL-gp120-W69A
  % Binding: 97%
BaL-gp120-I491A
  % Binding: 98%
BaL-gp120-D57AD78A
  % Binding: 96%
BaL-gp120-Y61A
  % Binding: 85%
BaL-gp120-E492A
  % Binding: 105%
BaL-gp120-V68A
  % Binding: 83%
core-V3-D7
  % Binding: 102%
BaL-gp120-I420R
  % Binding: 101%
BaL-gp120-dV2
  % Binding: 87%
BaL-gp120-K33A
  % Binding: 89%
BaL-gp120-V44A
  % Binding: 94%
BaL-gp120-Y40A
  % Binding: 106%
BaL-gp120-D57A
  % Binding: 95%
BaL-gp120-Y39A
  % Binding: 90%
BaL-gp120-K46A
  % Binding: 93%
BaL-gp120-R476A
  % Binding: 101%
BaL-gp120-E106AD107A
  % Binding: 80%
BaL-gp120-L494A
  % Binding: 95%
BaL-gp120-S200A
  % Binding: 86%
BaL-gp120-G495A
  % Binding: 90%
BaL-gp120-P76A
  % Binding: 96%
BaL-gp120-R58AK59A
  % Binding: 101%
BaL-gp120-W35A
  % Binding: 107%
core-V1V2-D7
  % Binding: 103%
BaL-gp120-P498A
  % Binding: 97%
BaL-gp120-H105A
  % Binding: 100%
BaL-gp120-dV3
  % Binding: 109%
BaL-gp120-T499A
  % Binding: 107%
BaL-gp120-W45A
  % Binding: 96%
BaL-gp120-I423A
  % Binding: 96%
core-D7
  % Binding: 106%
BaL-gp120-K487AK490A
  % Binding: 85%
BaL-gp120 [4]
  % Binding: 100%
